Literature values, collected in article PMC9499636.
Values belong to the substance of their own block, whether it stands above or below them.

Experiments:
Ship2 Sam (Homo sapiens) [1] = target: Ship2 Sam (Homo sapiens) (UniProt O15357); experiment: ITC
Ship2 Sam (Homo sapiens) [2] = target: Ship2 Sam (Homo sapiens) (UniProt O15357); experiment: SPR
EphA2 Sam (Homo sapiens) [3] = target: EphA2 Sam (Homo sapiens) (UniProt P29317); experiment: ITC
EphA2 Sam (Homo sapiens) [4] = target: EphA2 Sam (Homo sapiens) (UniProt P29317); experiment: SPR
[5] = target: EphA2-Sam Sam (Homo sapiens) (UniProt P29317); experiment: SPR

Sequence of UniProt O15357 (O15357 1193-1258): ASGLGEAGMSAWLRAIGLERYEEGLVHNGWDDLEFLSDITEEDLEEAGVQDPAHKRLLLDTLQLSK

Kd (Ship2 Sam (Homo sapiens) [1]): 0.75 µM
Kd (Ship2 Sam (Homo sapiens) [2]): 2.2 µM
Substance: EphA2 Sam (from UniProt P29317)

Kd (EphA2 Sam (Homo sapiens) [3]): 0.62 µM
Kd (EphA2 Sam (Homo sapiens) [4]): 5.5 µM
Substance: Odin Sam1 (from UniProt Q92625)

Kd [5]: 222 µM
Substance: Pep2 (from UniProt Q92625)

Kd [5]: 523 µM
Substance: Pep3 (from UniProt Q92625)
